Source: US20250326826A1 (CENTRO DE INGENIER A GEN TICA Y BIOTECNOLOG A, published 2025)

Experiments:
[1] = target: bFGF (soluble stimulus added to cell cultures); assay: cell-based or functional assay
[2] = target: VEGF (soluble stimulus added to cell cultures); assay: cell-based or functional assay
[3] = target: VEGF (soluble stimulus added to cell cultures); assay: cell-based or functional assay; remark: listed apart in the source
[4] = target: T1, CHO-VEGF (hVEGF121 produced in the CHO cell line) (human, UniProt P15692-9 27-147); assay: competition ELISA, coated CHO hVEGF121, competitor biotinylated Bevacizumab
T1 construct: any tag is not described
T1 sequence (looked up): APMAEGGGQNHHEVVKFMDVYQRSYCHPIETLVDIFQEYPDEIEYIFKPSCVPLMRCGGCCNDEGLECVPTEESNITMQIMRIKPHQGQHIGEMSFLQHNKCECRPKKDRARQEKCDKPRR
Experimental: (§1) Their displacement from their binding to VEGF could be an indication of the potentiality of the new polypeptides to mediate the desired effects in vivo. The ability of anti-VEGF VHH to compete with Bevacizumab antibody and CIGB166a antibody fragment for binding to its ligand was assessed by a variation of the solid phase ligand competition ELISA as described. 96-well plates (NUNC, Germany) were coated with 1 μg/mL hVEGF121, produced in the CHO cell line. Serial dilutions of purified VHHs were added, from 15,000 nM to 1,200 nM.
(§2) Biotinylated Bevacizumab or biotinylated-CIGB166a were then added, diluted in blocking solution to a final concentration of 2.3 ng/mL and 14.3 ng/ml, respectively. To detect the binding of biotinylated antibodies, streptavidin conjugated to HRP was added. The wells incubated with Biotinylated Bevacizumab or biotinylated-CIGB166a, without the addition of the antibody fragments, were taken as reference of maximum binding in the absence of competitor. In this assay, the Fc-VEGFR2 receptor chimera was used as a positive control. The percentage of inhibition of the binding of Bevacizumab, CIGB166a or VEGFR2 to its ligand was calculated as described above in the Example 1.

GST-hVEGF121 [5] = target: T2, GST-hVEGF121 (human, UniProt P15692-9 27-147); assay: ELISA, coated GST-hVEGF121
T2 construct: plate coating of the VEGF ELISAs; also called human VEGF; not shown: glutathione S-transferase (GST) fusion partner
T2 sequence (looked up): T1 sequence (looked up)
Experimental: (§3) The 96-well plates were coated with 100 μL/well of a solution of GST-hVEGF121, GST-mVEGF120, or GST at a concentration of 20 μg/mL, or with a solution of VEGFKDR- at a concentration of 10 μg/mL, or hFGF-2 or mFGF-2 at a concentration of 5 μg/mL in 1×PBS for 16 hours at 4° C. After the plates were blocked with PBS-5% skim milk for one hour, 1:2 serial dilutions of the purified VHHs were added, starting at 2 μg/mL in PBS-0.5% skim milk. The plates were incubated for 1 hour at 37° C. and after several washes, the monoclonal antibody 9E10, specific for c-myc, was added. After one hour of incubation at 25° C. the plates were washed thoroughly. The binding of the fragment to the antigen in the solid phase was detected by the peroxidase activity using 100 μL/well of TMB. The reaction was stopped with 50 μL/well of stop solution, and absorbance values at 450 nm were determined in a microtiter plate reader.
(§4) The main characteristic of an antibody and its derived fragments is their recognition of the antigen, which determines their specificity and affinity. Specific binding to VEGF was evaluated as described in the section “ELISA for VHHs recognition of their target antigen” (Example 1). […] Nb-V1 also recognized a mutated variant of VEGF121 in the ELISA system where, in the so-called 80's loop, amino acids R82, K84 and H86 are replaced by E82, E84 and E86. […]

GST-hVEGF121 [6] = target: T2, GST-hVEGF121; assay: ELISA, coated GST-hVEGF
Experimental: as §3

GST-hVEGF121 [7] = target: T2, GST-hVEGF121; assay: ELISA, coated GST-hVEGF121, detection with anti-c-myc 9E10
Experimental: as §3, §4

GST-hVEGF121 [8] = target: T2, GST-hVEGF121; assay: competition ELISA, coated GST-hVEGF, competitor Fc-VEGFR2
Experimental: (§5) The ability of VHHs to hinder receptors for binding to their ligand was assessed by ELISA, for which 96-well plates (NUNC, USA) were coated with GST-hVEGF or bFGF and blocked as described in the previous section. Serial 1:2 dilutions of the purified VHHs, from […] to […], were added and the plates and incubated for 1 h at 37° C. In this step, some wells were left where only PBS-milk was added. […] After 45 min incubation at 37° C., plates were washed with PBS-0.05% Tween. To detect receptor binding, HRP-conjugated anti-human IgG antibody was added, diluted 1:5000 in PBS-0.5% milk. After incubation for 1 h at 37° C., the plates were washed with PBS-Tween, and TMB was added. The reaction was stopped after 10 min. Wells incubated with the receptors without the addition of the antibody fragments were taken as reference for maximum binding in the absence of competitor. In this assay, in the case of inhibition of the VEGF/VEGFR axis, the CIGB166a antibody fragment was used as a positive control, and an anti-FGF polyclonal antibody was used for the FGF/FGFR axis. The percentage of inhibition of receptor binding to its ligand was calculated as follows: […]
The biological effect of VEGF is a consequence of its binding to two fundamental receptors (VEGFR1 and VEGFR2), so for a polypeptide that binds to VEGF to be effective in the therapeutic setting, it must block these interactions (Shibuya, Cell Structure and Function, 2001: 26: 25-35). The ability of Nb-V1 to compete with receptors 1 and 2 for binding to its ligand (VEGF) was assessed by solid phase ligand competition ELISA, as described above.

[9] = target: T1, CHO-VEGF (hVEGF121 produced in the CHO …); assay: competition ELISA, coated CHO hVEGF121, competitor biotinylated CIGB166a
Experimental: as §1, §2

Recombinant human bFGF [10] = target: T3, Recombinant human bFGF (human, UniProt P09038 143-288, limits assumed); assay: ELISA, coated antigen
T3 construct: Bought (Sigma); also called hFGF-2; human basic fibroblast growth factor
Experimental: (§6) After one hour of incubation at 25° C. the plates were washed thoroughly. The binding of the fragment to the antigen in the solid phase was detected by the peroxidase activity using 100 μL/well of TMB. The reaction was stopped with 50 μL/well of stop solution, and absorbance values at 450 nm were determined in a microtiter plate reader.
(§7) The main characteristic of an antibody and its derived fragments is their recognition of the antigen, which determines their specificity and affinity. Specific binding to VEGF was evaluated as described in the section “ELISA for VHHs recognition of their target antigen” (Example 1). […] Nb-V1 also recognized a mutated variant of VEGF121 in the ELISA system where, in the so-called 80's loop, amino acids R82, K84 and H86 are replaced by E82, E84 and E86. It shares this property with CIGB166a, but differentiates it from Bevacizumab.
(§8) Specific binding to bFGF was evaluated as described in the bFGF recognition ELISAs of the Example 1.

GST-mVEGF120 = target: T4, GST-mVEGF120 (mouse, UniProt Q00731-3 27-146); assay: ELISA, coated GST-mVEGF120
T4 construct: Produced in E. coli; also called mouse VEGF; mouse growth factor; not shown: glutathione S-transferase (GST) fusion partner
T4 sequence (looked up): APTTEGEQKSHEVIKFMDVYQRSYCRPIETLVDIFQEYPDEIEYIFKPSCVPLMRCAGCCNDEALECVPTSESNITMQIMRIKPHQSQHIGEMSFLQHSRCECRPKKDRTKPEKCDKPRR
Experimental: as §3, §4

[11] = target: Human VEGF (dendritic cell assay) (human, UniProt P15692-4 27-191, limits assumed); assay: cell-based or functional assay
Mouse bFGF = target: T5, Mouse bFGF (mouse, UniProt P15655 10-154, limits assumed); assay: ELISA, coated mouse bFGF
T5 construct: Bought (SinoBiological); also called mFGF-2
Experimental: as §3
(§9) Specific binding to bFGF was evaluated as described in the bFGF recognition ELISAs of the Example 1. […] As in the case of Nb-V1, no recognition of GST or VEGF proteins was observed, thus reinforcing the evidence of the specificity of the binding of the Nb-F3 fragment to its antigen.

GST-hVEGF121 [12] = target: T2, GST-hVEGF121; assay: ELISA, coated antigen
Experimental: as §6, §7, §8

Recombinant human bFGF [13] = target: T3, Recombinant human bFGF; assay: ELISA, coated human bFGF
Experimental: as §3, §9

Recombinant human bFGF [14] = target: T3, Recombinant human bFGF; assay: competition ELISA, coated bFGF, competitor Fc-FGFR1
Experimental: as §5

Recombinant human bFGF [15] = target: T3, Recombinant human bFGF; assay: ELISA, coated human bFGF; remark: listed apart in the source
Experimental: as §3
SEQ ID NO: 18 and SEQ ID NO: 19, and the bivalent Nb-VV6 and Nb-FF2, with sequences identified as SEQ ID NO: 20 and SEQ ID NO: 21, were expressed and purified as described in the Example 1. In all cases, the purity and identity of the proteins were verified by SDS-PAGE 12% and anti-polyhistidine Western Blot. […] The experimental mass of the polypeptides and the arrangement of the disulfide bridges were checked by ESI/MS-MS. The experimental and theoretical mass, for each polypeptide coincided, with errors less than 0.0015% in all cases, and the formation of intramolecular bridges between C22-C101 and C168-C247 was verified. […] The biological activity of the polypeptides was evaluated by ELISA for recognition of the VEGF and bFGF antigens, and by their ability to displace VEGF and bFGF binding to their respective VEGFR2 and FGFR1 receptors. […] Similarly, it was shown that the ability to displace the binding of antigens by their receptors was not affected.

VEGF (soluble stimulus added to cell cultures), sequence (P15692 whole entry): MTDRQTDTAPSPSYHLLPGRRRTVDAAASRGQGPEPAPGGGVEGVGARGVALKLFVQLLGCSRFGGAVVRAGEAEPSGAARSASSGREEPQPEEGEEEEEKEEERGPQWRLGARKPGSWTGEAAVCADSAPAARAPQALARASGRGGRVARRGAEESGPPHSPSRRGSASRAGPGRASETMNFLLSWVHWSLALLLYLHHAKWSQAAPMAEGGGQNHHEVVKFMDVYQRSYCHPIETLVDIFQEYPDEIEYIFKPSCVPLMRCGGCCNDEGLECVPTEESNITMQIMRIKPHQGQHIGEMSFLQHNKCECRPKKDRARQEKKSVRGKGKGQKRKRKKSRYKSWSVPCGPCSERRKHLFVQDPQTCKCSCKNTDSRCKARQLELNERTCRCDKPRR
T3 sequence (P09038 143-288 limits assumed): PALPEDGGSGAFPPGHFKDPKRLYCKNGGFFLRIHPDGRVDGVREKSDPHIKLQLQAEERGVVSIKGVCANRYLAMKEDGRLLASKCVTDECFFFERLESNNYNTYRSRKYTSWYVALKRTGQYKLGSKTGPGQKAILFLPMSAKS
T5 sequence (P15655 10-154 limits assumed): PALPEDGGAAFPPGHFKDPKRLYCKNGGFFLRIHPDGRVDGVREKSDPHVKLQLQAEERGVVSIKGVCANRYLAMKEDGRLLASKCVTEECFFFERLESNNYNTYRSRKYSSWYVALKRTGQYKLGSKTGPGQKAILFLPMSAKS

B1: Nb-V1 (VHH)
VHH: QVQLVESGGGLVQPGGSLRLSCAASGNSAEDRLYNSYTWFRQAPGQGLEAVAAISSHFSAGLTYYADSVKGRFTISRDNSKNTLYLQMNSLRAEDTAVYYCEITSHASHNDAWSTPRTVWGQGTLVTVSS
notes: carries the C-terminal c-myc tracer peptide and histidine tag; also called VHH Nb-V1
Question: How did the “IC50, proliferation of HDMEC cells +bFGF (10 ng/ml)” value [1] turn out when B1 was run?
Answer: Its value is greater than 6000 nM.

Question: And the “IC50, proliferation of HDMEC cells +VEGF (5 ng/ml)” value [2]?
Answer: Its value is 116 nM.

Question: And the “PD1 expression (%) in CD8+ cells treated with VEGF, VHH 1 µg/mL” value [3]?
Answer: Its value is 64%.

Question: What about the “PD1 expression (%) in CD8+ cells treated with VEGF, VHH 5 µg/mL” value [3] of the same binder?
Answer: The value was 58%.

Question: What about the “PD1 expression (%) in CD8+ cells treated with VEGF, VHH 10 µg/mL” value [3] of the same binder?
Answer: The value was 38%.

Question: What about the IC50 [4] of the same binder?
Answer: The IC50 was 931 nM.

Question: And the “fold lower EC50 than Nb-E7” value (GST-hVEGF121 [5])?
Answer: Its value is 3 fold.

Question: What about the EC50 (GST-hVEGF121 [6]) of the same binder?
Answer: The EC50 was 4.45 nM.

Question: What about the EC50 (GST-hVEGF121 [7]) of the same binder?
Answer: The EC50 was 4.73 nM.

Question: What about the IC50 (GST-hVEGF121 [8]) of the same binder?
Answer: Its IC50 is 28.6 nM.

Question: And the IC50 [9]?
Answer: The IC50 was 67.5 nM.

Question: Does B1 bind (Recombinant human bFGF [10])?
Answer: Result: no binding

Question: And the EC50 (GST-mVEGF120)?
Answer: Its EC50 is 4.08 nM.

Question: What about the “CD86 (MFI) on dendritic cells +VEGF +LPS, VHH 1 µg/mL” value [11] of the same binder?
Answer: The value was 1560 MFI.

Question: And the “CD86 (MFI) on dendritic cells +VEGF +LPS, VHH 5 µg/mL” value [11]?
Answer: The value was 3000 MFI.

Question: And the “CD86 (MFI) on dendritic cells +VEGF +LPS, VHH 10 µg/mL” value [11]?
Answer: Its value is 17200 MFI.

Question: What about the “MHCII (MFI) on dendritic cells +VEGF +LPS, VHH 1 µg/mL” value [11] of the same binder?
Answer: The value was 4700 MFI.

Question: And the “MHCII (MFI) on dendritic cells +VEGF +LPS, VHH 5 µg/mL” value [11]?
Answer: The value was 5200 MFI.

Question: What about the “MHCII (MFI) on dendritic cells +VEGF +LPS, VHH 10 µg/mL” value [11] of the same binder?
Answer: The value was 17000 MFI.

B2: Nb-F3 (VHH)
VHH: QVQLVESGGGLVQPGGSLRLSCAASGTEDGRLLTLGGSWFRQAPGQGLEAVAAIGAGDRGGATYYADSVKGRFTISRDNSKNTLYLQMNSLRAEDTAVYYCTALYERQPQLAATKVARKWGQGTLVTVSS
notes: carries the C-terminal c-myc tracer peptide and histidine tag; also called VHH Nb-F3
Question: How did the “IC50, proliferation of HDMEC cells +bFGF (10 ng/ml)” value [1] turn out when B2 was run?
Answer: Its value is 121 nM.

Question: And the “IC50, proliferation of HDMEC cells +VEGF (5 ng/ml)” value [2]?
Answer: Its value is greater than 6000 nM.

Question: And the EC50 (Mouse bFGF)?
Answer: The EC50 was 11.5 nM.

Question: Does B2 bind (GST-hVEGF121 [12])?
Answer: Result: no binding

Question: And the “fold increase in recognition against Nb-A5” value (Recombinant human bFGF [13])?
Answer: The value was 5 fold.

Question: What about the IC50 (Recombinant human bFGF [14]) of the same binder?
Answer: The IC50 was 134 nM.

Question: What about the EC50 (Recombinant human bFGF [15]) of the same binder?
Answer: The EC50 was 11.3 nM.
